Assay: label from the status in PepcDB records

Row | Sequence | protein production
1 | MQEKPAATGKADESAASKELLKLLRKAVAAVSGEDGWASLSNLGSHISKIRPSFDSRNYGYSKLSTLVKNLDIFETRMVPSADKLHTDVFLRLKDGKLEHHHHHH | failed
2 | MQMLSRIHRETCSQDVNECGMKPRPCQHRCVNTHGSYKCFCLSGHMLMPDATCVNSRTCAMINCQYSCEDTEEGPQCLCPSSGLRLAPNGRDCLDIDECASGKVICPYNRRCVNTFGSYYCKCHIGFELQYISGRYDCIDINECTMDSHTCSHHANCFNTQGSFKCKCKQGYKGNGLRCSAIPENSVKEVLRAPGTIKDRIKKLLAHKNSMKKKAKIKNVTPEPTRTPTPKVNLQPFNYEEIVSRGGNSHGGKKGNEEKMKEGLEDEKREEKALKNDIEERSLRGDVFFPKVNEAGEFGLILVQRKALTSKLEHKDLNISVDCSFNHGICDWKQDREDDFDWNPADRDNAIGFYMAVPALAGHKKDIGRLKLLLPDLQPQSNFCLLFDYRLAGDKVGKLRVFVKNSNNALAWEKTTSEDEKWKTGKIQLYQGTDATKSIIFEAERGKGKTGEIAVDGVLLVSGLCPDSLLSVDD | failed
3 | MKSSDIDQDLFTDSYCKVCSAQLISESQRVAHYESRKHASKVRLYYMLHPRDGGCPAKRLRSENGSDADMVDKNKCCTLCNMSFTSAVVADSHYQGKIHAKRLKLLLGEKTPLKTTGLRRNYRCAICSVSLNSIEQYHAHLKGSKHQTNLKNK | failed
4 | MTEFPKILMVLGAVIFGIGLFMQVIGRLPGDIFVKKGNVTFFFPVVTCIVISIILSVVFSFFGRMK | failed
5 | MRTMPDKPDTWARIVAAISNPLWQGMIMAIVVSLLRILYDAKETSKRRILFEALICGSLSLVASSLIEWMTWPPSLSVAAGGTIGFLGVTAIRELVARFIGRKVDSL | failed
6 | MRGVYRVMVKVYIENYGCARNRADGEIMAALLYLSGHEIVESPEESEIVVVNSCAVKDPTERKIARRIRELLDNGKKVIVTGCLPHVNPDVIDERVSAILGVKSIDRIVQAVEYAMRGEKLISVPDWKKRNLDKLDFPRLSPRNVYFILPIAEGCLNACTYCATRLARGVLKSYSPEKIIGWVKWAIKQGYKEIWLSAEDTGCYGFDIGTNLAKLIDEITAIEGEFRIRVGMMNPNHVLKFLDELIDAYKDEKVYKFLHLPVQSGDNEILRKMGRMYTVEEFEEIVKAFRREFPELNLHTDIIVGFPGESEEAFQRSVELIKRIRPDKVNVSRYSPRPGTIAAKWKQLPGWVVKERSRLLHRIRLQISYEINRKYIGKKVKVLIHGEGKKGNVDAVTMNYKHIILPEGRKGEFREARVKNAASTYLLGEIIT | failed
7 | ARTYRGVELIPVENIYYFLADQKYVTVRHKNGSVLIDETLKELELEFQNRFIRIHRNALVSVDYLDGLEVISSGQYQVRCREVNERLAVSRRHLPYLRDRMQKM | failed
8 | MILKSSIDRLLQTIDIVEVISSYVNLRKSGSSYMACCPFHEERSASFSVNQIKGFYHCFGCGASGDSIKFVMAFEKLSFVEALEKLAHRFNIVLEYDKGVYYDHKEDYHLLEMVSSLYQEELFNAPFFLNYLQKRGLSLESIKAFKLGLCTNRIDYGIENKGLNKDKLIELGVLGKSDNDQKTYLRFLDRIMFPIYSPSAQVVGFGGRTLKEKAAKYINSPQSKLFDKSSLLYGYHLAKEHIYKQKQVIVTEGYLDVILLHQAGFKNAIATLGTALTPSHLPLLKKGDPEILLSYDGDKAGRNAAYKASLMLAKEQRRGGVILFENNLDPADMIANGQIETLKNWLSHPMAFIEFVLRRMADSYLLDDPLEKDKALKEMLGFLKNFSLLLQSEYKPLIATLLQAPLHVLGIRERVSFQPFYPKTEKPNRPQRFAHVSSAPSLEFLEKLVIRYLLEDRSLLDLAVGYIHSGVFLHKKQEFDALCQEKLDDPKLVALLLDANLPLKKGGFEKELRLLILRYFERQLKEIPKSSLPFSEKMICLKKARQAIMKLKQGELVAI | failed
9 | GFAATALPVLQRVTDRTHEATILSVRDGNHHLTVNKVDGPKTFRVTSDPGHLGALHTTSVGKALVAFEEEVERKRLLEELPLDPLTEHSITDRDKFRAEIDQVRRQGYAVMDEENEIGMRAVAVPVLNSQGHAFASLAVAVPVFRLTMEELIAHVPTLQEAAAELAARLPQ | failed
10 | MSALPSYTQNGQTITFAFAQPLQLTIVTPEIIRVFINRGEQGESYAIEGHKIQATDFTIESAGDHYIIRTSALTIHLDSERHLDTFDKDGNALITDYRGERIHLKGVDKVHERLVEAEGHSVTKAPTKSDQGYYEIIKSLAPDEYLYGLGDKTGYLNKRGFAYDNWNVDNPAPQLEILPNIYKSIPVMLGLKNGHPYGIFFDNTYQSHLDMGKESNHYYFYSAVQGNLDYYIIGGTTLKDIVTNYTYLTGRTPLPQKWTLGYQQSRWGYSASQEEVQAIADNLAKYDLPCDAIHFDVDYMDGYRVFTWDKDKYQGNPKKFITKLNQQGLKVIPIIDPGVKQDSDYHIYAEGLKKGYFVKSADGDVYINKVWPGNAAFPDFGRPEVRQWWANNGKFLTDLGVAGIWIDMNEPATFEGPIPDDVVFNDQDTPSTHKKMHNVYGHNMAKATYAGLKEQTGNRPFVITRAAYAGTQKYSTVWTGDNRSMWPHIQMMIPQLCNLGLSGFSFTGTDIGGFASDTTSELLTRWIEGAIFSPLLRNHAALGTRQQEPWAFGEPTLNIYRKYLKLRYRLIPYLYDLFAKETKTGLPIMRPVVLNYDQDPRVRDLNDEYMVGDDILVAPVVQKSQFKRLVYLPAGNWVDFWNGAEYAGNQDIVVDTPLDKLPLFVKQNTILPWGPAVSHISDEPLKAMTFRVFGTQGTYQHYQDNGRDFKYQSGEWNNYTITVDHNKVNVQLTHHGYQPVYQQITVELSDHVVKLTYDNDSSCYRE | failed
11 | LEQVQESKAESTAPSSDAVVVSKTNTSSMPVAELRSLIDDLTTQMGTAARELKFELAGRLRDEIAELKKELRGMEEIGLA | failed
12 | MNPTAGKTSATGEQMASTSADTYSPSRDDFAAMLDESFAGGNLQESSVVKGKVVAIEKDMAVIDVGLKTEGRVALREFSGPGRDSEIKVGDEVEVFLDRIENALGEAVLSRDKARREESWGKLEKAFQNNEKVNGVIFNQVKGGFTVDLDGAVAFLPRSQVDIRPIRDVAPLMNNSQPFQILKMDRRRGNIVVSRRTVLEETRAEQRQELVQNLEEGQVIDGVVKNITDYGAFVDLGGIDGLLHVTDIAWRRVNHPTEVLSIGQTVKVKIIKINHETHRISLGMKQLLDDPWQGIEAKYPLGARFTGRVTNITDYGAFVELEPGIEGLIHVSEMSWTKKNMHPGKIVSTSQEVEVQVLEVDSVKRRISLGLKQTMRNPWEVFVEGHPTGSVVEGEVKNKTEFGLFLGLEGDVDGMVHLSDLDWKLPGEQVIDNYKKGDMVKAVVLDVDVEKERISLGIKQLEGDPFAEPGDVKKGAVVTCEVLEVKESGIEVKIAGTDFTTFIKRSELARDRNDQRAERFAVGEKVDARVIQFDKKARKVQVSIKALEVAEEKEAIAQYGSSDSGATLGDILGTALKNRDSK | failed
13 | MIQSQINRNIRLDLADAILLSKAKKDLSFAEIADGTGLAEAFVTAALLGQQALPADAARLVGAKLDLDEDSILLLQMIPLRGCIDDRIPTDPTMYRFYEMLQVYGTTLKALVHEKFGDGIISAINFKLDVKKVADPEGGERAVITLDGKYLPTKPF | not failed
14 | MKYPIVPLTKFGLFRAQTYAVLKRPYLVTALVSYFMVALLVIIYLNKAPSFTSDMEMVLPGTGSSNSVSLDNVGQVVSQTNTPFSGGGFNPRVNYKEMLSSRGVRARAAKKLHLSLEDLGEPRIKLTEQTSIISLEMSANGQELAQAKTLALYESLQDELNNLRADEVLRRDQSIEQVLDRYRERMNITRNAIVDFQQRSIVVSTDQMDQLVRTLSGVREKHLYVKAETKQLQEYIYQLSDELGVSPKLAGQAFALQSDVEFRAYITELKESITQLTEYSSRWGVNHPKVKAQQKRLNFTRISINERSSQMYGVNSNEIFNSLNLDLNPKRSELFADLIDAYAKQKGQESMLEDLGRSALHLGDQLKIYSREIVELERLQREFNMAEAIFTSAAARLEASKSDVFASYPVLQMLTTPSYPMKQSSPKNIIAFIGAITGFIFITLGLIILSQRNKLIQIILKKEETTSSNS | failed
15 | MIIEYLQLVGLGLVTMLPVANPLTSTTLLLALGSGFTRDERNRQIGRATVYVAAIILASFYAGNAIISSFGISIPGLRIAGGLIVAYIGFTMLFPATSQNEAQAQVEMAPDDPHIQVPGAAHTGPRPRDISFVPLALPGTAGPGTIALIISSASTLHSHGGITLIHHFAVITVTLLLALLFWACLRSAERVMRMLGQSGIDAISRVMGFLLICMGVQFIIDGVFELIRHPPGA | failed
16 | MSLRIDPLGGESLKNQEVKGKKSGKTSRVGESKKKEFFDILEDVKEDHFEKLLEEAVEEVIDSGNELVRSPTPSNLKRYKNAIKEFLKLIEKKIYKLAGSFDMNSGRARLHLVVEEVNEKLMDLTEKIMKNEWQTINLAARIEEINGLILNLYREGHHHHHH | not failed
17 | MRVTHFFMAAIAVVFVLAGCSTMPKKPDSLTRGDYGYTKEYVSWLIKKEMRENDVTGLSIALVDDQRVVWAQGFGVADEANKVPATPDTIYRVGSISKLFTATAVLQLAEQGKMDIDKPLSTYLPEFSVKSRFPDAGPITPRTLMTHHSGLPSDFLKGMWTNNPEPISNVVNLLKDEYAQYPPNFVFSYSNLGVSLLGNAVERIAGRPYASQIDETVLHPLGMASSSFSTHSDVASRLAKGYRNGKEIGEPQLRDIPAGGLHTNVLDLSRFMEMVFAGGKAGERRILKEETLAEMLSPQNDGVPLDHDFHIGLGWLLTDVGIENAGKVAWHDGATLLYRSQMVILPEQKLGVVVLSNSATAASVVHKVATEALKLAMEAKAGIRQPERSKPVEREADLSPEERQKLAGAYVTPFGTVKVIESGTTLRTEFFGKTFSVVPRNDGRMGLRYRLLGVIPISLGDLDYLGFSTSTVSGHNVLLATAAGKSMLVGEKMEPVLVSEQWQRRVGAYEIANPGDDTMLVDDIRLRYEDGFLRVDYALPLFFDGKLNVSLQPLSDTEAVIRGLGRGMGETIRVVAVNGEEMLQYSGYLLKKKRE | failed
18 | MNILKRKTPQNIRFGEQKPKYYFHIRAFAVLLGVFFLLGVYFNWQSILEKMDDKPISAFALVGQNTFTTADDIKESLLKMGELKGFWGQDVAPIQEQIEALPWVKGAIVRKMWPNRLSIWVSEYQPVAFWNQNQFVTLDGIVFQLPSVRLTAKNLPYLGGPDYQSLKVIETWNQIYINLKSNNIMAKGINIDDRGAWQVQLDNDIVLKLGRGDWKSKLERFVTIYPQIDVPENKKIDYIDLRYTAGAAVGMVDR | failed
19 | MTYEAFVELVERLWEEVPEDFKRGLQGVHVFPEAKPEPGLEGVWRLGEYLDPGPPSAFGGFEDLGRHIALYYGSFLEVAGEGFDWEAEVWETLLHELRHHLESLAGRDDLVQEDLRRLDAFRRGGPSGEG | not failed
20 | MATSRTQRDVWVYVGIGAMVSALVLFSLVPLVMGLWQPRPAADGVVNGGTPLESQALGYQLVLEREPDNVNALQGLLEIRLQQKNLAAAIAPLERLGQIRTDQVQYRILLAQLKTQLEDNAGAAKVYREILTQSPHNIQALKGLSGLYAQQERPAEAVAIVQNAITQAIKAQTGAPGTVPPDQLTSLQLLLGEIYLSQNRPDQAIAIYEAASKVNGNDFRPVLAQAQVMAQTGKVKEADPFFQQAIMLAPVQYKDPIKNIALQVTNQALANQNGAPETSIPSPAPILKSE | failed
21 | MKRLALALKQRKVASWKLEEVKELTELIKNSNTILIGNLEGFPADKLHEIRKKLRGKATIKVTKNTLFKIAAKNAGIDIEKLEQYLTGPNVFIFTKDNPFITNMFFENYKLRRYAMPGDKAEEEVVIPAGDTGMPAGPILSVFGKLKVQTKVQDGKVHVVKDTVVAKPGDVIPAEALPILQKLGIMPVYVKLKIKVAYHEGLVIPAESLKLDLEGYRSNITEAYRNAFTLAVEIAYPTPDVLKFTISKVFKNAIALASEIGYITPESAQAVISKAVAKAYALATAIGGKVDLGVQLPTVQQSQSQQPAAEEKKEEKKEEEKKGPSEEEIASGLASLFG | failed
22 | MEYQLSQAGNKGKVLILKVTGIFFVALAILGVVLPILPTTPFLLVAAACFAKSSPTMQRKLLANKTFGPLIHDWQKYRSIPRKAKRIALLTMILSVCWSAFMLQSVMLTALVVALVIGPFIFLLRLPESK | failed

— a protein production outcome set (Wang et al. 2014)
